From patent US20020168748

B1: Recombinant glutathione-S-transferase (GST)-Rho1, preloaded with GTPγS (protein)
chain: MSQQVGNSIRRKLVIVGDGACGKTCLLIVFSKGQFPEVYVPTVFENYVADVEVDGRRVELALWDTAGQEDYDRLRPLSYPDSNVVLICFSIDLPDSLENVQEKWIAEVLHFCQGVPIILVGCKVDLRNDPQTIEQLRQEGQQPVTSQEGQSVADQIGATGYYECSAKTGYGVREVFEAATRASLMGKSKTNGKAKKNTTEKKKKKCVLL
B2: Recombinant glutathione-S-transferase (GST)-Rho1, preloaded with GDP (protein)
chain: MSQQVGNSIRRKLVIVGDGACGKTCLLIVFSKGQFPEVYVPTVFENYVADVEVDGRRVELALWDTAGQEDYDRLRPLSYPDSNVVLICFSIDLPDSLENVQEKWIAEVLHFCQGVPIILVGCKVDLRNDPQTIEQLRQEGQQPVTSQEGQSVADQIGATGYYECSAKTGYGVREVFEAATRASLMGKSKTNGKAKKNTTEKKKKKCVLL
B3: Candida GGTase (CaGGTase), geranylgeranyl protein transferase I purified from Candida cells (protein)
chain 1: MTDSKYDYSDITPVDINTEEPQICQILYDEDYKQIMGLLLALMKAEEYSERALHITELGINELASHYTIWIYRFNILKNLPNRNLYDELDWCEEIALDNEKNYQIWNYRQLIIGRIMELNNNDFDPYREFLILEAMLSSDPKNHHVWSYRKWLVDTFDLHNDAKELSFVDKVIDTDLKNNSAWSHRFFLLFSKKHLATDNTIDEELNYVKDKIVKCPQNPSTWNYLLGIHERFDRSITQLEEFSLQFVDLEKDQVTSSFALETLAKIYTQQKKYNEARTVYDLLKSKYDPIRSNFWDYQISKLTSV
chain 2: MNQLLINKHEKFFNRCLIGLPSTAQSEDSNKLAIIYFCLHGLQLIQKFQFTNQELIYYRNFIINQFMIENNQIISFRSTHYFQKTNQKYDCPNLSSTLFALYNLLILKSPYHTIINRKKIMNFLCKCQVKDGINKGGFVPTLYYDEENGDYKQYGEPDLRVCYMALLIRHLMKYDDNNNNNNREDSNETDIDLISLQQFILDRININGGFSSTIMDESHLGFTFCAIASLKLLNYPLEKLKSTKEWLIHRQVDYPENLYPKDGNGDNYEYYRNIDIGGFNGRENKLSDTCYSWWCTGSLYNIDVNFIKLVDLNKAEDYLLNKTQNQLFGGFGRDPDSTPDPMHSYLALASLSLWNHEKFALQEINPILTITKELYQFFKEEIKY
B4: S. cerevisiae GGTase (ScGGTase) (protein)
chain 1: MEEYDYSDVKPLPIETDLQDELCRIMYTEDYKRLMGLARALISLNELSPRALQLTAEIIDVAPAFYTIWNYRFNIVRHMMSESEDTVLYLNKELDWLDEVTLNNPKNYQIWSYRQSLLKLHPSPSFKRELPILKLMIDDDSKNYHVWSYRKWCCLFFSDFQHELAYASDLIETDIYNNSAWTHRMFYWVNAKDVISKVELADELQFIMDKIQLVPQNISPWTYLRGFQELFHDRLQWDSKVVDFATTFIGDVLSLPIGSPEDLPEIESSYALEFLAYHWGADPCTRDNAVKAYSLLAIKYDPIRKNLWHHKINNLN
chain 2: MCQATNGPSRVVTKKHRKFFERHLQLLPSSHQGHDVNRMAIIFYSISGLSIFDVNVSAKYGDHLGWMRKHYIKTVLDDTENTVISGFVGSLVMNIPHATTINLPNTLFALLSMIMLRDYEYFETILDKRSLARFVSKCQRPDRGSFVSCLDYKTNCGSSVDSDDLRFCYIAVAILYICGCRSKEDFDEYIDTEKLLGYIMSQQCYNGAFGAHNEPHSGYTSCALSTLALLSSLEKLSDKFKEDTITWLLHRQVSSHGCMKFESELNASYDQSDDGGFQGRENKFADTCYAFWCLNSLHLLTKDWKMLCQTELVTNYLLDRTQKTLTGGFSKNDEEDADLYHSCLGSAALALIEGKFNGELCIPQEIFNDFSKRCCF

What was measured:
[1] = molecular target: 1,3-β-glucan synthase (GS) complex, P38631
Sequence of 1,3-β-glucan synthase (GS) complex, P38631 (P38631 whole entry, looked up, one chain of several): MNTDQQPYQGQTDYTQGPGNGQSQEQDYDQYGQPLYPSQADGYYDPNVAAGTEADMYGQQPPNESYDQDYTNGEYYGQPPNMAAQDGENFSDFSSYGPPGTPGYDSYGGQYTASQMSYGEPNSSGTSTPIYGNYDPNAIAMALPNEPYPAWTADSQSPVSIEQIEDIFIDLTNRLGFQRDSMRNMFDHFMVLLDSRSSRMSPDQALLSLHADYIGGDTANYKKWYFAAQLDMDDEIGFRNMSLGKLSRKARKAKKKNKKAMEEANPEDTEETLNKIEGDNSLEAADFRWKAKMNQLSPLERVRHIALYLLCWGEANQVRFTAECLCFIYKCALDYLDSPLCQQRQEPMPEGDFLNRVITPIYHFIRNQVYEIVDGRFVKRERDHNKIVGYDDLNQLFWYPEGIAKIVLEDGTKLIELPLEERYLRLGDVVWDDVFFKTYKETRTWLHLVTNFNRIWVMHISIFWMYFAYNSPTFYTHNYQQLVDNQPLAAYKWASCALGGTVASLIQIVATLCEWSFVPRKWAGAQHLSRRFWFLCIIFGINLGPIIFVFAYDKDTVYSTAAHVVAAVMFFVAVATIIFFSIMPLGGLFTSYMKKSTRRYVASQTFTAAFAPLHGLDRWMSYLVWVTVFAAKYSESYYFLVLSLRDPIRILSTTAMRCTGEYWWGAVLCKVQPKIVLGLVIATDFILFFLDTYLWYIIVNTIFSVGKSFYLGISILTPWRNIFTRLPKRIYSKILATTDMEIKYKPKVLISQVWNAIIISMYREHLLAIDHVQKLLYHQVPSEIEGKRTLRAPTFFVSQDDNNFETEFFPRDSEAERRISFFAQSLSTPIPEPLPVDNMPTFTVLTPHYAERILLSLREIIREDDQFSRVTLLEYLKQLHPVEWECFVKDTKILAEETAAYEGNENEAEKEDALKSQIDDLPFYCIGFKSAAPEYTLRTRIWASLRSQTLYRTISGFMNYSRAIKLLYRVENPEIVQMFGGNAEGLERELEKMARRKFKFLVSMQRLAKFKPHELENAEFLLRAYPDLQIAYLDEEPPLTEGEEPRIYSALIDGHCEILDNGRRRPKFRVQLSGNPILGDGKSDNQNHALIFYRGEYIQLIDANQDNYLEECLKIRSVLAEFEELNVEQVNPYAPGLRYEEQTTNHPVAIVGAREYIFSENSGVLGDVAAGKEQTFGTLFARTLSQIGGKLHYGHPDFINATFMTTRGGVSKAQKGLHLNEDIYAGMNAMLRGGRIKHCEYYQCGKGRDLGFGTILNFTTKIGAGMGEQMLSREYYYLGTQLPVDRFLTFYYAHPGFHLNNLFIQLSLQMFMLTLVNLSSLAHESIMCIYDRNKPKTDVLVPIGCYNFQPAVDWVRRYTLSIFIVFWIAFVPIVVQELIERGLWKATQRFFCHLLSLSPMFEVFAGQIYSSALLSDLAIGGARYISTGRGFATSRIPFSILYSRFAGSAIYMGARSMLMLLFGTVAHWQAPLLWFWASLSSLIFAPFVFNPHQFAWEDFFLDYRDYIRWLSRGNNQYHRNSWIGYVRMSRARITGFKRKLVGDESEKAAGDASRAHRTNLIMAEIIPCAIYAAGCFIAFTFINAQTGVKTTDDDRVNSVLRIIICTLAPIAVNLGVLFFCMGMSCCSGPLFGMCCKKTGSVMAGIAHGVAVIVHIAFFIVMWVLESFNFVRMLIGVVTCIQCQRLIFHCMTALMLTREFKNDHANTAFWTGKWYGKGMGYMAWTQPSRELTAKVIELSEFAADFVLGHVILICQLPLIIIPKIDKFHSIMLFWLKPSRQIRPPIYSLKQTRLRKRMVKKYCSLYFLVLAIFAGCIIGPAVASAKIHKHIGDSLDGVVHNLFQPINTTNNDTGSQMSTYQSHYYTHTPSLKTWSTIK

[2] = molecular target: H-RasCVLL, P01112
Sequence of H-RasCVLL, P01112 (P01112 whole entry, looked up): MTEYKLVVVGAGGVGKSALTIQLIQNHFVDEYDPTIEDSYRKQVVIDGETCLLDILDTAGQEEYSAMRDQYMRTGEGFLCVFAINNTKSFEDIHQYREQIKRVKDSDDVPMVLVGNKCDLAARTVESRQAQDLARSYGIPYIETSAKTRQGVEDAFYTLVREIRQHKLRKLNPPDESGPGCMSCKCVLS

[3] = molecular target: T1, CaRho1 (Candida Rho1-like GTPase)
T1 chain: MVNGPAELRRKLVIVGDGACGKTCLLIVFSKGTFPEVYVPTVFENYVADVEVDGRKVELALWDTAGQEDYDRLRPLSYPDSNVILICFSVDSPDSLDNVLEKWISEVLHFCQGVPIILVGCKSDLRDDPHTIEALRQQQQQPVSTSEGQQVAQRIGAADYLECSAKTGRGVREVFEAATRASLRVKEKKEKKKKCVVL

[4] = molecular target: T2, peptide GKKKKKKSKTKCVIM (C-terminus of K-ras4B)
T2 chain: GKKKKKKSKTKCVIM

[5] = molecular target: human RhoA, P61586
Sequence of human RhoA, P61586 (P61586 whole entry): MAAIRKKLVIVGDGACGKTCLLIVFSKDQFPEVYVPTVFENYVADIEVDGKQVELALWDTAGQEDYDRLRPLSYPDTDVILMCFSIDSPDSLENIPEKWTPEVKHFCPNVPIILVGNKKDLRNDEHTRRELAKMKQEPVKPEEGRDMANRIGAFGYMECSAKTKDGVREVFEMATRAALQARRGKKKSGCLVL

[6] = molecular target: T3, peptide RVKEKKEKKKKCVVL (C-terminus of CaRho1)
T3 chain: RVKEKKEKKKKCVVL

[7] = molecular target: T4, peptide GCVLL
T4 chain: GCVLL

[8] = molecular target: T5, peptide LQARRGKKKSGCLVL (C-terminus of huRhoA)
T5 chain: LQARRGKKKSGCLVL

Row | Protein | GS activity in rho1-3 membrane fractions at 37° C. [1] | GS activity in rho1-3 membranes complemented with GST-Rho1 [1] | Km [2] | Km [3] [µM] | prenylation of the peptide [4] | Km [5] | prenylation of the peptide [6] | prenylation of the peptide [7] | prenylation of the peptide [8]
1 | B1 | GS activity was restored fully by the addition of GTPγS-bound GST-Rho1 | – | – | – | – | – | – | – | –
2 | B2 | – | GTPγS could be replaced with GTP, but not GDP | – | – | – | – | – | – | –
3 | B3 | – | – | NS* | 250 | + | NS | + | – | –
4 | B4 | – | – | NS | 80 | + | < 100 µM | + | Human GGTase can prenylate peptides that lack the polylysine region, whereas the fungal GGTases can not | +
